Results as given in patent US20210061914A1 (published 2021).
Where a chain is given by its changes, count along the chain named.

What was measured:
[1] = target: HLA-A*02:01_… (HLA-PEPTIDE target G8), soluble (human, enzymatically biotinylated (BirA) for screening and BLI); test: BLI (Octet), biotinylated pHLA on streptavidin sensor, Fab in solution, 1:1 model
[2] = target: HLA-B*35:01_… (HLA-PEPTIDE target G5), soluble (human, enzymatically biotinylated (BirA)); test: scFv PPE ELISA
[3] = target: HLA-A*01:01_… (HLA-PEPTIDE target G10), soluble (human, enzymatically biotinylated (BirA)); test: BLI (Octet), biotinylated pHLA on streptavidin sensor, Fab in solution, 1:1 model

B1: Fab clone R3G8-P2C10 (Fab, V domains shown)
VH: QVQLVQSGAEVKKPGASVKVSCKASGYTFTSYYMHWVRQAPGQGLEWMGWINPYSGGTNYAQKFQGRVTMTRDTSTSTVYMELSSLRSEDTAVYYCAKGGIYYGSGSYPSWGQGTLVTVSS
VL: DIQMTQSPSSLSASVGDRVTITCRASQDVSTWLAWYQQKPGKAPKLLIYAASSLQSGVPSRFSGSGSGTDFTLTISSLQPEDFATYYCQQSHSTPQTFGQGTKVEIK
notes: Fab made in HEK293
B1 was tested, and the Kd [1] was 17.7 nM, the koff [1] was 0.0013 s⁻¹ and the kon [1] was 75000 M⁻¹ s⁻¹.

B2: Fab clone G8-P1C11 (Fab, V domains shown)
VH: QVQLVQSGAEVKKPGASVKVSCKASGGTLSSYPINWVRQAPGQGLEWMGWISTYSGHADYAQKLQGRVTMTRDTSTSTVYMELSSLRSEDTAVYYCARSYDYGDYLNFDYWGQGTLVTVSS
VL: B1 VL with R24Q, V29I, T31N, W32Y, A34N, H92Y, T94I, Q96P, Q100G, E105D
notes: Fab made in HEK293; also called R3G8-P1C11
With B2 the Kd [1] was 178 nM, the koff [1] was 0.0338 s⁻¹ and the kon [1] was 190000 M⁻¹ s⁻¹.

B3: scFv G5-P3G08 (scFv, V domains shown)
VH: QVQLVQSGAEVKKPGASVKVSCKASGYIFRNYPMHWVRQAPGQGLEWMGWINPDSGGTKYAQKFQGRVTMTRDTSTSTVYMELSSLRSEDTAVYYCARDNGVGVDYWGQGTLVTVSS
VL: B1 VL with D28G, V29I, T31N, W32Y, H92Y, S93I, Q96Y, V104L
notes: scFv
For B3, the “fold selective binding, target pHLA vs minipool of negative control pHLAs” value [2] was ≥ 3 fold.

B4: scFv G5-P4B02 (scFv, V domains shown)
VH: QVQLVQSGAEVKKPGASVKVSCKASGYTFTGYYMHWVRQAPGQGLEWMGWMNPNIGNTGYAQKFQGRVTMTRDTSTSTVYMELSSLRSEDTAVYYCARGIADSGSYYGNGRDYYYGMDVWGQGTTVTVSS
VL: DIVMTQSPDSLAVSLGERATINCKTSQSVLYRPNNENYLAWYQQKPGQPPKLLIYQASIREPGVPDRFSGSGSGTDFTLTISSLQAEDVAVYYCQQYYTTPYTFGQGTKLEIK
notes: scFv
For B4, the “fold selective binding, target pHLA vs minipool of negative control pHLAs” value [2] was ≥ 3 fold.

B5: Fab clone R3G8-P2E04 (Fab, V domains shown)
VH: QVQLVQSGAEVKKPGSSVKVSCKASGGTFSSYGVSWVRQAPGQGLEWMGWISPYSGNTDYAQKFQGRVTITADESTSTAYMELSSLRSEDTAVYYCARGLYYMDVWGKGTTVTVSS
VL: DIQMTQSPSSLSASVGDRVTITCRASQSISSWLAWYQQKPGKAPKLLIYDASNLETGVPSRFSGSGSGTDFTLTISSLQPEDFATYYCQQSYSTPLTFGGGTKLEIK
notes: Fab made in HEK293
B5 was tested, and the Kd [1] was 286 nM, the koff [1] was 0.0789 s⁻¹ and the kon [1] was 545000 M⁻¹ s⁻¹.

B6: Fab clone R3G10-P4E07 (Fab, V domains shown)
VH: QVQLVQSGAEVKKPGSSVKVSCKASGYTFTGYYMHWVRQAPGQGLEWMGRISPSDGSTTYAPKFQGRVTITADESTSTAYMELSSLRSEDTAVYYCARDMGDAFDIWGQGTTVTVSS
VL: not shown
notes: Fab made in HEK293
Binder B6 has a Kd [3] of 428 nM, a koff [3] of 0.111 s⁻¹ and a kon [3] of 477000 M⁻¹ s⁻¹.

B7: Fab clone R3G10-P1B07 (Fab, V domains shown)
VH: QVQLVQSGAEVKKPGASVKVSCKASGYTFTSYYMHWVRQAPGQGLEWMGIIHPGGGTTSYAQKFQGRVTMTRDTSTSTVYMELSSLRSEDTAVYYCARDKVYGDGFDPWGQGTLVTVSS
VL: DIQMTQSPSSLSASVGDRVTITCRASQSISRWLAWYQQKPGKAPKLLIFDASRLQSGVPSRFSGSGSGTDFTLTISSLQPEDFATYYCQQAEAFPYTFGQGTKVEIK
notes: Fab made in HEK293
For B7, the Kd [3] was 37.5 nM, the koff [3] was 0.00615 s⁻¹ and the kon [3] was 165000 M⁻¹ s⁻¹.
